B1: NCs-PEG-Pt-scFv (conjugate)
scFv: NVQLVESGGGLVQPGRSLRLSCTTSGFTFGDYAMIWARQAPGKGLEWVSSISSSSSYIYYADSVKGRFTISRDNAKNSLYLQMNSLRAEDTAVYYCARERYDFWSGMDVWGKGTTVTVSSGGGGSGGGGSGGSAQSALTQPASVSGSPGQSITISCTGTSSDVGSYNLVSWYQQHPGKAPKLMIYEGSKRPSGVSNRFSGSKSGNAASLTISGLQAEDEADYYCQSYDSSLSVVFGGGTKLTVLGAAAHHHHHHGAAEQ
B2: NCs_scFv (conjugate)
scFv: B1 scFv

Tests used:
[1] = tested on: IGROV-1 cells; test: Hyperthermia combined with release of chemotherapeutic agent, viability with Presto blue; assay type: cell-based; details: for cell viability at 24 hours / cell viability at 48 hours / cell viability at 120 hours: with hyperthermia (2 x 30 min, 42° C., 27 kA m^−1, 182 kHz), 5.5 g Fe/L
Experimental: Hyperthermia experiments were conducted on cells treated with the invention's nanocubes to monitor the efficiency of nanoparticles in killing tumor cells with heat and improving the toxicity mediated by oxaliplatin. In practice, 3×10^6 IGROV-1 cells were incubated with 5.5 g of Fe/L of invention nanocubes functionalized with oxaliplatin and NCs-PEG-Pt-C4 antibody fragment, and exposed to a magnetic field of 27 kA m^−1 at frequency of 182 kHz, so as not to exceed the biological limit (Hf=5×10^9 A m^−1 s^−1). Two consecutive 30-minutes hyperthermia treatments were then performed, each with a maximum temperature reached in these conditions of 42° C. Also included in this study were: untreated cells, cells incubated with nanocubes functionalized only with antibody without oxaliplatin (exposed and not exposed to hyperthermia), and cells incubated with nanocubes functionalized with antibody and oxaliplatin not exposed to hyperthermia. A control experiment was also performed by incubating the cells with free oxaliplatin at the same amount of platinum loaded on the nanocubes (28 μg of platinum, corresponding to 140 μM of oxaliplatin).
After the hyperthermal treatment, the cells were washed to remove excess nanocubes present and re-seeded in a fresh culture medium (5×10^4 cells per well for each cell sample), so as to monitor their vitality at 24, 48 and 120 hours after treatment, with an assay with blue Presto. […] After 120 hours, the combined and concomitant action of hyperthermia and release of the chemotherapeutic agent made the cells unable to recover their growth (vitality of about 40% at 120 hours).

[2] = tested on: IGROV-1 cells; test: Cytotoxicity, cell viability assay with Presto blue; assay type: cell-based
Experimental: Cytotoxicity studies have been conducted to confirm the activity of the platinum-based chemotherapeutic agent attached to the nanocubes. IGROV-1 cells were incubated with nanocubes functionalized with oxaliplatin and antibody (in FIG. 3a indicated as NCs_OHP_C4) for 24, 48 and 72 hours at Fe concentration equal to 0.05 g/L, 0.1 g/L and 0.15 g/L, corresponding to 1.3, 2.6 and 3.9 μM of oxaliplatin chemotherapeutic agent. Cell viability has been verified in an assay with Presto blue. […] The toxicity of the chemotherapeutic agent alone was administered, administered to the cells for 24 hours, 48 hours and 72 hours at the concentration of oxaliplatin corresponding to the same quantity loaded on the nanocubes. […] It is also important to note that in these experiments the control consisted of nanocubes with polymeric coating, functionalised with PEG-NTA-C4, but lacking oxaliplatin, prepared as described above.
Cytotoxicity data were also collected for longer-time treatments, to verify the toxicity of oxaliplatin loaded on the nanocubes according to the invention over extended periods of time. In fact, since the action of platinum-based chemotherapy drugs involves their interleaving within the cell's DNA, the adverse effects of treatment with these drugs should be more evident at longer times after exposure to the drug. Then, after exposure of the IGROV-1 cells to the nanocubes functionalized with antibody and drug for 24, 48 and 72 hours of treatment respectively, the supernatant was removed and the cells were kept in a fresh culture medium for a further 24, 48 or 72 hours. The viability of these cells was verified by analysis with blue Presto immediately after direct exposure to the nanocubes and at 24, 48 and 72 hours after incubation.

[3] = tested on: IGROV-1 cells; test: Comet assay for DNA cross-linking; assay type: cell-based; details: 24, 48, 72 hours incubation, then H2O2
Experimental: Furthermore, once released from the nanocubes, platinum must be incorporated into the cell nuclei and must form crosslinks with the DNA. In fact, its toxicity depends on the impossibility for cells to replicate and transcribe their genetic makeup due to the presence of platinum-DNA complexes. Thus, to evaluate the presence of cross-linking in the DNA of cells treated with nanocubes, a Comet assay was performed, whose results are illustrated in the images in FIG. 7, acquired with a confocal microscope. In this experiment, the cell samples examined of IGROV-1 cells were incubated with the nanocubes with antibody but without platinum (in FIG. 7 indicated as NCs_C4) and with the nanocubes of the invention with antibody and oxaliplatin (indicated in the figure as NCs_OHP_C4) for 24, 48 and 72 hours, so they were treated with H2O2 hydrogen peroxide. As a control, IGROV-1 cells were used, treated with the same nanocubes, with and without platinum, but without treatment with hydrogen peroxide.
The toxicity observed in the cells following treatment with functionalized nanocubes of the invention, we can conclude that it results from the combined effects of hyperthermia and toxicity induced by the platinum-based drug.

[4] = Release of platinum from nanocubes in citrate buffer at different pH; assay type: physicochemical; details: pH 5.5, 5 and 4.5
Text: Firstly, in a test tube, the release of platinum from the citrated buffer nanocubes at different pH was verified, according to the expected acidity values for endosomes, late endosomes and lysosomes (pH=5.5, 5 and 4.5 respectively). It has thus been verified that the release of platinum is pH dependent and that the maximum amount of platinum released is obtained at the lowest pH, i.e. at pH 4.5, which corresponds to the pH of the lysosomal environment.

[5] = tested on: IGROV-1 cells; test: Confocal laser scanning microscopy (CLSM) of nanocube internalization; assay type: cell-based
[6] = tested on: A431-MOCK cells (do not express the folate receptor); test: Flow cytometry (FACS) binding of nanocubes to cells; assay type: cell-based; details: 0.025 mg/mL antibody fragment, PBS, 4° C., 1 hour
Experimental: (§1) The A431-tFR and A431-MOCK cells provided by the IRCSS Foundation, National Cancer Institute, Milan, Italy, were grown in the modified Dulbecco culture medium (DMEM, Merck, Kenilworth, USA). IGROV-1 cells (ATCC, UK) were cultured in RPMI-1640 (RPMI-1640, Merck, Kenilworth, USA). The KB cells (ATCC, UK) were cultured in RPMI-1640 without folic acid (RPMI-1640 without folic acid, Merck, Kenilworth, USA). All culture media were added with 10% inactivated fetal bovine serum (FBS), 1% penicillin-streptomycin and 1% glutamine at 37° C., 95% humidity with 5% CO2. The cells were divided every 3-4 days before reaching confluence. In these experiments, the functionalized nanocubes of the invention comprising the antibody fragment in a quantity of 0.025 mg/mL were incubated in PBS at 4° C. for 1 hour with 5×10^5 cells of the cell lines indicated above. As a negative control, the non-functionalised nanocubes with polymer coating were used. Then, after three washes, the cells were incubated for 1 hour at 4° C. with the primary antibody that binds to the myc sequence of the C4 antibody fragment. Following a wash in PBS a secondary antibody conjugated to the fluorescent probe Alexa-488 was added to the cells, capable of binding the Fc portion of the primary antibody.

[7] = tested on: KB cells (high natural expression of folate receptors); test: as above; assay type: cell-based; details: 0.025 mg/mL antibody fragment, PBS, 4° C., 1 hour
Experimental: as §1

[8] = tested on: IGROV-1 cells (high natural expression of folate receptors); test: as above; assay type: cell-based; details: 0.025 mg/mL antibody fragment, PBS, 4° C., 1 hour
Experimental: as §1

[9] = tested on: A431-tFR cells (A431 transfected with folate receptor gene α-FR); test: as above; assay type: cell-based; details: 0.025 mg/mL antibody fragment, PBS, 4° C., 1 hour
Experimental: as §1

[10] = 24, 48 and 72 hours, oxaliplatin amount or nanocube concentration as for loaded nanocubes

| Molecule | cell viability after treatment ([1]; free drug, 140 μM oxaliplatin (28 μg platinum), 24, 48, 120 hours) | toxicity (cell viability, Presto blue) [2, 10] | cell viability at 24 hours [1] | cell viability at 48 hours [1] | cell viability at 120 hours [1] | DNA trace in Comet assay [3] | pH of maximum amount of platinum released [4] | release of platinum [4] | localization of nanocubes in cells ([5]; 2 hours incubation at 37° C.) | localization of nanocubes in cells ([5]; 4 hours incubation at 37° C.) | localization of nanocubes in cells ([5]; 12 hours incubation at 37° C.) | nanocube binding to cells (fluorescence intensity vs. cell count) [6] | nanocube binding to cells (fluorescence intensity vs. cell count) [7] | nanocube binding to cells (fluorescence intensity vs. cell count) [8] | nanocube binding to cells (fluorescence intensity vs. cell count) [9] | cell viability post-incubation (p.i.) ([2]; 24 hours of treatment, then fresh medium 24, 48, 72 hours) | toxicity (cell viability, Presto blue) ([2]; 48 hours incubation, Fe 0.05, 0.1, 0.15 g/L = 1.3, 2.6, 3.9 μM oxaliplatin) | cell viability post-incubation (p.i.) ([2]; 48 hours of treatment, then fresh medium up to 72 hours) | toxicity (cell viability, Presto blue) ([2]; 72 hours incubation vs 48 hours, Fe 0.05, 0.1, 0.15 g/L = 1.3, 2.6, 3.9 μM oxaliplatin) |
| --- | --- | --- | --- | --- | --- | --- | --- | --- | --- | --- | --- | --- | --- | --- | --- | --- | --- | --- | --- |
| O=C1[O][Pt]2([NH][C@@H]3CCCC[C@H]3[NH]2)[O]C1=O [oxaliplatin, reference compound] | slightly affected | moderate toxicity |  |  |  |  |  |  |  |  |  |  |  |  |  |  |  |  |  |
| B1 |  |  | significantly modified cell viability | further compromised | about 40% | progressive delay in migration reaching a maximum after 72 hours | 4.5 | pH dependent | most of the nanocubes were located at the cell membrane | progressive internalization | complete internalization | no binding was found | nanocube binding was demonstrated | nanocube binding was demonstrated | nanocube binding was demonstrated | decreases after 24 hours of treatment (post-incubation, p.i.) for the next 24 hours and then goes up again after 48 and 72 hours post-incubation | Serious toxicity | decreases again for the next 72 hours | increased |
| B2 |  | no toxicity | significantly modified cell viability | began to show a recovery | 95% | traces of extensive damage |  |  |  |  |  |  |  |  |  |  |  |  |  |

Reference: patent US11547721B2, “Magnetic nanoparticles for use in the treatment of tumors” (CONSIGLIO NAZIONALE DELLE RICERCHE, priority 2018, dated 2023)
